Molecular target: T1, TGF-β2 K25R I92V K94R (UniProt P61812 303-414, K25R; I92V; K94R)
T1 construct: mature; Immobilised on the SPR sensor surface
T1 sequence (looked up): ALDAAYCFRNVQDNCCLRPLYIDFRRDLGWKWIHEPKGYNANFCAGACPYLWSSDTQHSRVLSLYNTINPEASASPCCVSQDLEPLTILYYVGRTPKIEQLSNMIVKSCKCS
Experiment: SPR, receptor injected over immobilised TGF-β2 K25R I92V K94R

B1: TGF-β type III receptor endoglin-like domain (receptor)
chain: GPEPSTRCELSPINASHPVQALMESFTVLSGCASRGTTGLPREVHVLNLRSTDQGPGQRQREVTLHLNPIASVHTHHKPIVFLLNSPQPLVWHLKTERLAAGVPRLFLVSEGSVVQFPSGNFSLTAETEERNFPQENEHLLRWAQKEYGAVTSFTELKIARNIYIKVGEDQVFPPTCNIGKNFLSLNYLAEYLQPKAAEGCVLPSQPHEKEVHIIELITPSSNPYSAFQVDIIVDIRPAQEDPEVVKNLVLILKCKKSVNWVIKSFDVKGNLKVIAPNSIGFGKESERSMTMTKLVRDDIPSTQENLMKWALDNGYRPVTSYTMAPVANRFHLRLENNEEMRDEEVHTIPPELRILLDPD
notes: also called TβRIIIE; BGE
maximal mass-normalized response relative to that for TβRII: ~0.5 fold of TβRII
